The text below walks through data of patent publication US5670340.

Experiment [1] concerns the target β-gal97S4DhCNP-22R3-2 fusion protein (Escherichia coli; human) [β-galactosidase: P00722].
The target of experiment [2] is β-gal97S4DhCNP-22R5-2 fusion protein (Escherichia coli; human) [β-galactosidase: P00722].
Experiment [3] has as its target β-gal97S4DhCNP-22R5-3 fusion protein (Escherichia coli; human) [β-galactosidase: P00722].
Experiment [4] has as its target fusion protein encoded by pG97S4DhCT(G)R4 (β-gal97S4D - linker R4 - hCT(G)) (Escherichia coli; human) [β-galactosidase: P00722].
For experiment [5], the target named is fusion protein encoded by pG97S4DhCT(G)R5 (β-gal97S4D - linker R5 - hCT(G)) (Escherichia coli; human) [β-galactosidase: P00722].

As to “V8 protease (from UniProt P0C1U8) (enzyme)”, the release efficiency of human CNP-22 (HPLC) in experiment [1] is 99%; in experiment [2] it was 95%; in experiment [3], 92%. In addition, the values for the cleavage efficiency (hCT(G) released, HPLC) in experiment [4] and in experiment [5] were 97% and 7%, respectively.
